# Paper PMC2230226
# How the values were obtained:
# [1] = biological target: bovine pancreatic trypsin (bovine)
# human plasmin (human) [2] = biological target: human plasmin (human)
# [3] = biological target: bovine α-thrombin (bovine); test: enzyme inhibition (amidolytic activity, chromogenic substrate); Ki of thrombin inhibition; tight-binding kinetics assumed, apparent (native inhibitor); the conditions of the Ki determination itself are not told
# [4] = biological target: bovine pancreatic trypsin (bovine); test: enzyme inhibition kinetics (progress curves, chromogenic substrate); slow-binding inhibition; second-order rate constant k2/Ki from kobs; 0.2 mM Chromozym TH (trypsin, 6.25 ng/ml) or Chromozym PL (plasmin, 12.5 µg/ml); boophilin 0.1-0.65 µM (trypsin) or 0.04-0.4 µM (plasmin); 45 min at 37°C
# human plasmin (human) [5] = test: as above
# Target sequence in this assay (P00747 20-580, chain 1 of 2): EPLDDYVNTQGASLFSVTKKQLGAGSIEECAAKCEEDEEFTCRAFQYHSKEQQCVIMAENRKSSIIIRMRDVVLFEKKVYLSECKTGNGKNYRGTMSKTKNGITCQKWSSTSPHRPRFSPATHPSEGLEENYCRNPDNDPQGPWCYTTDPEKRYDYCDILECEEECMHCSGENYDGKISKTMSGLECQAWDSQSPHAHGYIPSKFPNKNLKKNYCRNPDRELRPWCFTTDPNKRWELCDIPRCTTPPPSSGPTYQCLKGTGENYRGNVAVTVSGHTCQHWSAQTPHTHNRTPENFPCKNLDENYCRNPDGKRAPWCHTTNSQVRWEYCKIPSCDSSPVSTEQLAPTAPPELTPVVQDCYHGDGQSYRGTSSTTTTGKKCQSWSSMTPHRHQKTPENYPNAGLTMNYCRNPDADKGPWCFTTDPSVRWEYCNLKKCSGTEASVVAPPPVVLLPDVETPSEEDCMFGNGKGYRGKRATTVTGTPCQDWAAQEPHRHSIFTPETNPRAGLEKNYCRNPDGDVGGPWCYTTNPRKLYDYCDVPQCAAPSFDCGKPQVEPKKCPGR
# Target sequence in this assay (P00747 581-810, chain 2 of 2): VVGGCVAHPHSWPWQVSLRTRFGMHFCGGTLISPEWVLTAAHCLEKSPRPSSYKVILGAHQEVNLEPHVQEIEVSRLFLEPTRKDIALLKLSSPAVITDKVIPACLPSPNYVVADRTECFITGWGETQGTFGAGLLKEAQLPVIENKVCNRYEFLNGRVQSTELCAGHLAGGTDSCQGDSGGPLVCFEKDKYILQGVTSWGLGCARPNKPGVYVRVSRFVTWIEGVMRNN
# [6] = biological target: bovine factor Xa (bovine)
# [7] = biological target: human plasma kallikrein (human) (UniProt P03952)
# human α-FXIIa (human) = human α-FXIIa (human) (UniProt P00748)
# [8] = biological target: recombinant human FVIIa (NovoSeven) (human) (UniProt P08709)
# recombinant sc-tPA = recombinant sc-tPA (UniProt P00750)
# recombinant tryptase = recombinant tryptase (UniProt Q15661)
# urokinase (uPA) = urokinase (uPA) (UniProt P00749)
# [9] = biological target: bovine pancreatic trypsin (bovine); test: native gel or EMSA; 500 ng human thrombin or bovine trypsin in 25 mM Tris-HCl pH 8.0, 190 mM glycine, mixed with increasing boophilin, 15 min at room temperature; 10% Tris-glycine polyacrylamide gel at 4°C, silver-stained
# human α-thrombin (human) = test: as above
# Chain of human plasma kallikrein (human) (P03952 20-390, chain 1 of 2): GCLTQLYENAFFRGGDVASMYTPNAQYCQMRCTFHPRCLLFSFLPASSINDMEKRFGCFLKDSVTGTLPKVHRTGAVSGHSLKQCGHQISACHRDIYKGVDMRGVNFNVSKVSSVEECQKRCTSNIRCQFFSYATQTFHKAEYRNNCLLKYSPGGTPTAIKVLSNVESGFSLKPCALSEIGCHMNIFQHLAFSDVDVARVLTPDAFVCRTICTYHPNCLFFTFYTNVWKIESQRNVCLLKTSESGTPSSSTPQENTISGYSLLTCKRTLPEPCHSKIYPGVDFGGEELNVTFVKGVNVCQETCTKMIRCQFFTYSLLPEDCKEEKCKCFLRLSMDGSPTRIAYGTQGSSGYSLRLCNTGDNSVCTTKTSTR
# Chain of human plasma kallikrein (human) (P03952 391-638, chain 2 of 2): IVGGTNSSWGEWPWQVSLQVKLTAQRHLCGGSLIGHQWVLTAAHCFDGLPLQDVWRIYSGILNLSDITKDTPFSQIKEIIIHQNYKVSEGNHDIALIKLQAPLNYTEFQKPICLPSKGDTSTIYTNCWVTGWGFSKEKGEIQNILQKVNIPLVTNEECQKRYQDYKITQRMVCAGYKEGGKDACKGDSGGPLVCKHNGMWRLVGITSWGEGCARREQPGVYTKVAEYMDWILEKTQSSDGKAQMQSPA
# Chain of recombinant sc-tPA (P00750 36-562): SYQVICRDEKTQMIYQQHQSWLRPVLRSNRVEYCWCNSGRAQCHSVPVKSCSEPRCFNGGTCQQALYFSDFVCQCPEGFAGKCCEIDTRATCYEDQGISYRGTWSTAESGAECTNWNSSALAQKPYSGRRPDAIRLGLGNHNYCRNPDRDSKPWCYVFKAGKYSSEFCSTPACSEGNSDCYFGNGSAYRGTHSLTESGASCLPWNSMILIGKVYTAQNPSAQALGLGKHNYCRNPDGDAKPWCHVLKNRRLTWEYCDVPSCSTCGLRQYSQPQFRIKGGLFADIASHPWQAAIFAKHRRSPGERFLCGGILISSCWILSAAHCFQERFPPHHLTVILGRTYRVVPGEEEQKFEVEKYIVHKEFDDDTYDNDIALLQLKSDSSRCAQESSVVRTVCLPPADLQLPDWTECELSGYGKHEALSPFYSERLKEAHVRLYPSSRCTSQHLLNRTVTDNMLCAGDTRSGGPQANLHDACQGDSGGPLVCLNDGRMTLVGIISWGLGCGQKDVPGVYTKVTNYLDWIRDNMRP
# Chain of recombinant tryptase (Q15661 19-275): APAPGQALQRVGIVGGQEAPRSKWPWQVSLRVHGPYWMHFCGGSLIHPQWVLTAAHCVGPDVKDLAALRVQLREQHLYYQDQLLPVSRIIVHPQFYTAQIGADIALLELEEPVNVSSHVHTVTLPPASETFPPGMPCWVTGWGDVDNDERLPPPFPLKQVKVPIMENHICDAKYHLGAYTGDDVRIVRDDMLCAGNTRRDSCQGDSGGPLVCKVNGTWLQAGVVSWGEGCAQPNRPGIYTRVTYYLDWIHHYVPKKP
# Chain of human α-FXIIa (human) (P00748 20-372, chain 1 of 2): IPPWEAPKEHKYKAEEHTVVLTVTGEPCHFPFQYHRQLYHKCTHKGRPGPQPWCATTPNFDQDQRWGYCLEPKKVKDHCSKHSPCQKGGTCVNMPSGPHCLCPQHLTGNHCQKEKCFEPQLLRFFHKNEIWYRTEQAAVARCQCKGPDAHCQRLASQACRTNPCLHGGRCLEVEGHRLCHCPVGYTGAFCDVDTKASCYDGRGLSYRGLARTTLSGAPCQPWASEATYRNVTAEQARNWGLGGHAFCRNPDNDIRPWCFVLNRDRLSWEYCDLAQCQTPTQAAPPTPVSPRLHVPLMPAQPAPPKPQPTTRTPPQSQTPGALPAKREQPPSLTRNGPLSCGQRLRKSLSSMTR
# Chain of human α-FXIIa (human) (P00748 373-615, chain 2 of 2): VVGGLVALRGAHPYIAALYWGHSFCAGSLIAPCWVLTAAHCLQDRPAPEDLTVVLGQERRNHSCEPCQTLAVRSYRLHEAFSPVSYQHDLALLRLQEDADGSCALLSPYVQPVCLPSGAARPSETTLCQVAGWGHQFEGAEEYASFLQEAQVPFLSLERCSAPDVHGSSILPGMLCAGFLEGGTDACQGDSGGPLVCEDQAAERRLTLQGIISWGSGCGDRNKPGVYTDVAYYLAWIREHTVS
# Chain of recombinant human FVIIa (NovoSeven) (human) (P08709 61-212, chain 1 of 2): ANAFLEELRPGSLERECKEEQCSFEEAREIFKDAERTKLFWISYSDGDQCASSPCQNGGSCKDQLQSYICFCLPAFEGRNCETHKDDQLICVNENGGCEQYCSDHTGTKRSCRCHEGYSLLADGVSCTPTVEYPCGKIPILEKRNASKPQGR
# Chain of recombinant human FVIIa (NovoSeven) (human) (P08709 213-466, chain 2 of 2): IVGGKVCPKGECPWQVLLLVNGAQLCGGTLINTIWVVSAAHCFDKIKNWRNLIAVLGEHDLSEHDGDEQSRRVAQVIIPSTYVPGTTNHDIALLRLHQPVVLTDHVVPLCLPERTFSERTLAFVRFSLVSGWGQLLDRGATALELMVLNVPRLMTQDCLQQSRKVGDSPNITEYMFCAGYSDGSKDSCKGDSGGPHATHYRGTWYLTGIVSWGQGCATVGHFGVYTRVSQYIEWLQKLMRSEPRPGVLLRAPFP
substance,measurement,setting,value
"recombinant boophilin (full-length mature protein, variant H2) (from UniProt Q8WPI2 16-142) (natural protein)","Inhibition of amidolytic activity (%), recombinant inhibitor (full-length) 2.36 µM, substrate Pefachrome tPA",[1],98%
same,"Inhibition of amidolytic activity (%), recombinant inhibitor (full-length) 2.36 µM, substrate Chromozym PL",human plasmin (human) [2],95%
same,Ki,[3],3.4 nM
same,second order rate constant k2/Ki,[4],384000 M⁻¹ s⁻¹
same,second order rate constant k2/Ki,human plasmin (human) [5],259000 M⁻¹ s⁻¹
isolated C-terminal boophilin domain (domain or fragment),"Inhibition of amidolytic activity (%), recombinant inhibitor (C-terminal domain) 15.2 µM, substrate Chromozym X",[6],0%
same,"Inhibition of amidolytic activity (%), recombinant inhibitor (C-terminal domain) 15.2 µM, substrate Pefachrome tPA",[1],80%
same,"Inhibition of amidolytic activity (%), recombinant inhibitor (C-terminal domain) 15.2 µM, substrate Chromozym PK",[7],0%
same,"Inhibition of amidolytic activity (%), recombinant inhibitor (C-terminal domain) 15.2 µM, substrate Chromozym PL",human plasmin (human) [2],25%
same,"Inhibition of amidolytic activity (%), recombinant inhibitor (C-terminal domain) 15.2 µM, substrate Pefachrome FXIIa",human α-FXIIa (human),0%
same,"Inhibition of amidolytic activity (%), recombinant inhibitor (C-terminal domain) 15.2 µM, substrate Chromozym tPA",[8],0%
same,"Inhibition of amidolytic activity (%), recombinant inhibitor (C-terminal domain) 15.2 µM, substrate Pefachrome tPA",recombinant sc-tPA,2%
same,"Inhibition of amidolytic activity (%), recombinant inhibitor (C-terminal domain) 15.2 µM, substrate Chromozym TH",recombinant tryptase,8%
same,"Inhibition of amidolytic activity (%), recombinant inhibitor (C-terminal domain) 15.2 µM, substrate Pefachrome uPA",urokinase (uPA),17%
native boophilin (natural protein),"Inhibition of amidolytic activity (%), native inhibitor 3.53 µM, substrate Chromozym X",[6],10%
same,"Inhibition of amidolytic activity (%), native inhibitor 3.53 µM, substrate Pefachrome tPA",[1],97%
same,"Inhibition of amidolytic activity (%), native inhibitor 3.53 µM, substrate Chromozym PK",[7],66%
same,"Inhibition of amidolytic activity (%), native inhibitor 3.53 µM, substrate Chromozym PL",human plasmin (human) [2],87%
same,"Inhibition of amidolytic activity (%), native inhibitor 3.53 µM, substrate Pefachrome uPA",urokinase (uPA),16%
same,Ki,[3],1.8 nM
same,stoichiometry N,[9],1
same,stoichiometry N,human α-thrombin (human),1
same,second order rate constant k2/Ki,[4],308000 M⁻¹ s⁻¹
